Assay results from patent US20250304717A1, “CAMPTOTHECIN DERIVATIVE AND LIGAND-DRUG CONJUGATE” (HAINAN SIMCERE ZAIMING PHARMACEUTICAL CO., LTD., priority 2022, published 2025).

B1: ADC-L1-19-6 (antibody, human IgG1, kappa, V domains shown)
VH: EVQLVQSGAEVKKPGASVKVSCKASGYTFTDYYMAWVRQAPGQGLEWMGYIFPNSGGTDYSQKFKGRVTLTVDKSTSTVYMELSSLRSEDTAVYYCARELGADYGDYYAMDHWGQGTTVTVSS
VL: DIQMTQSPSSLSASVGDRVTITCRASENIDSYLAWYQQKPGKSPKLLVYSATLLADGVPSRFSGSGSGTDYTLTISSLQPEDFATYYCQHYYRTPPTFGQGTKLEIKR
modifications: drug-linker L1-19 on cysteine thiols after TCEP reduction; positions not given; DAR 7.4 for the whole conjugate
notes: Antibody-drug conjugate
B2: ADC-L1-19-P1-6 (antibody, human IgG1, kappa, V domains shown)
VH: B1 VH
VL: B1 VL
modifications: drug-linker L1-19-P1 on cysteine thiols after TCEP reduction; positions not given; DAR 8.0 for the whole conjugate
notes: Antibody-drug conjugate
B3: CDH6-Ab-3 (antibody, human IgG1, kappa, V domains shown)
VH: B1 VH
VL: B1 VL
notes: also called humanized anti-human CDH6 antibody CDH6-Ab-3
B4: ADC-L1-19-5 (antibody, human IgG1, kappa, V domains shown)
VH: EVQLVQSGAEVKKPGASVKVSCKASGYTFTDNYINWVRQAPGQRLEWMGWIYPGTGNSYYNEKFKGRVTITVDTSASTAYMELSSLRSEDTAVYLCASSYGDSFDYWGQGTTVTVSS
VL: DIVMTQSPDSLAVSLGERATINCRASQDIRNYLNWYQQKPGQTPKLLISYTSRLHSGVPDRFSGSGSGTDFTLTISSLQAEDVAVYYCQQYSQLPWTFGGGTKVEIKR
modifications: drug-linker L1-19 on cysteine thiols after TCEP reduction; positions not given; DAR 6.8 for the whole conjugate
notes: Antibody-drug conjugate
B5: CDH6-Ab-2 (antibody, human IgG1, kappa, V domains shown)
VH: B4 VH
VL: B4 VL
notes: also called humanized anti-human CDH6 antibody CDH6-Ab-2
B6: ADC-L1-14-P1-3 (antibody, human IgG1, kappa, V domains shown)
VH: EVQLVQSGAEVKKPGASVKVSCKASGYTFTRNFMHWVRQAPGQGLEWMGWIYPGDGETEYAQKFQGRVTITADTSTSTAYMELSSLRSEDTAVYYCARGVYGGFAGGYFDFWGQGTLVTVSS
VL: DIQMTQSPSSLSASVGDRVTITCKASQNIYKNLAWYQQKPGKAPKLLIYDANTLQTGVPSRFSGSGSGSDFTLTISSLQPEDFATYFCQQYYSGWAFGQGTKVEIKR
modifications: drug-linker L1-14-P1 on cysteine thiols after TCEP reduction; positions not given; DAR 8.5 for the whole conjugate
notes: Antibody-drug conjugate
B7: ADC-L1-19-3 (antibody, human IgG1, kappa, V domains shown)
VH: B6 VH
VL: B6 VL
modifications: drug-linker L1-19 on cysteine thiols after TCEP reduction; positions not given; DAR 7.1 for the whole conjugate
notes: Antibody-drug conjugate
B8: CDH6-Ab (antibody, human IgG1, kappa, V domains shown)
VH: B6 VH
VL: B6 VL
notes: also called anti-human CDH6 monoclonal antibody CDH6-Ab
B9: ADC-L1-19-P1-3 (antibody, human IgG1, kappa, V domains shown)
VH: B6 VH
VL: B6 VL
modifications: drug-linker L1-19-P1 on cysteine thiols after TCEP reduction; positions not given; DAR 7.2 for the whole conjugate
notes: Antibody-drug conjugate
B10: ADC-L1-0-10 (antibody, human IgG1, kappa, V domains shown)
VH: QVQLRESGPGLVKPSETLSLTCTVSGFDISSYYMSWVRQPPGKGLEWIGAIGISGNAYYASWAKSRVTISRDTSKNQFSLKLSSVTAADTAVYYCARDHPTYGMDLWGPGTLVTVSS
VL: SYELTQPPSVSVAPGKTARITCEGNNIGSKAVHWYQQKPGQAPVLVIYDDDERPSGIPERFSGSNSGNTATLTISRVEAGDEADYYCQVWDSSAYVFGGGTKLTVLR
modifications: drug-linker L1-0 on cysteine thiols after TCEP reduction; positions not given; DAR 7.5 for the whole conjugate
B11: ROR1-Ab-3 (antibody, human IgG1, kappa, V domains shown)
VH: B10 VH
VL: B10 VL
notes: also called anti-human ROR1 monoclonal antibody ROR1-Ab-3

Target: T1, CDH6 on OVCAR3 cells (human, UniProt P55285 54-790)
T1 construct: whole, on cells; also called CDH6 positive cells OVCAR3; CDH6 high-expression cell strain
T1 sequence (looked up): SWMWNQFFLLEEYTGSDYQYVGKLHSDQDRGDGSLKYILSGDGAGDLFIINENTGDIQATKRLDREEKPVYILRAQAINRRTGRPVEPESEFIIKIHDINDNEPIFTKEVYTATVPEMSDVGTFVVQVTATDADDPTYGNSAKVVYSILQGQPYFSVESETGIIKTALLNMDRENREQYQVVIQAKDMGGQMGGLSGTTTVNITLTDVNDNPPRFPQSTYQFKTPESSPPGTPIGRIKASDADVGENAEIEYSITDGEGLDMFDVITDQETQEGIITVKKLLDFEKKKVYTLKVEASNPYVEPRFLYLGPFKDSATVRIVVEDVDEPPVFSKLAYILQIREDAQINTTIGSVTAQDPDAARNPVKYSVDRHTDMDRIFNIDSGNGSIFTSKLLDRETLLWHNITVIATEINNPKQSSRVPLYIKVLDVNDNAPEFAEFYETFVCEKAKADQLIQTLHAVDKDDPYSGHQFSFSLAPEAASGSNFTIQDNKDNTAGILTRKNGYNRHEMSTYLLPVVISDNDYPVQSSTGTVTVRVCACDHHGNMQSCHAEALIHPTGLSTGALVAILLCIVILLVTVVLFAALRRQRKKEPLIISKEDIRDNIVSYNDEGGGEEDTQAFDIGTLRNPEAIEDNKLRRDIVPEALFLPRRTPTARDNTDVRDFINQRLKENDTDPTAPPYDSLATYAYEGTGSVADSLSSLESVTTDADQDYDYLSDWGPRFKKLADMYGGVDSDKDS
Assay: flow cytometry (FACS) on OVCAR3 cells, Alexa Fluor 647 anti-human Fc secondary antibody, MFI, four-parameter fit
Description: OVCAR3 cells were collected, counted, and plated in a 96-well plate (Corning, 3795) at 2×10⁵ cells/well. The serially diluted sample to be detected was added and incubated at 4° C. for 1 h. After the mixture was washed twice with ice PBS, Alexa Fluor-647 Goat anti-human Fc secondary antibody (JacksonImmuno, 109-605-098) was added, and the mixture was incubated at 4° C. for 1 h. After the mixture was washed twice with ice PBS, the cells were resuspended, and the mean fluorescence intensity (MFI) was analyzed using a flow cytometer (BD FACSCanto™ II). Data were analyzed by four-parameter curve fitting using Graphpad Prism software to give EC₅₀ values.

Question: With B1 as the binder, how does the EC50 read?
Answer: Its EC50 is 0.85 nM.

Question: How did the EC50 turn out when B2 was run?
Answer: The EC50 was 0.8 nM.

Question: Which EC50 does the source give for B3 here?
Answer: The EC50 was 0.78 nM.

Question: How did the EC50 turn out when B4 was run?
Answer: The EC50 was 0.51 nM.

Question: B5 was tested. Which EC50 did it give?
Answer: The EC50 was 0.63 nM.

Question: How did the EC50 turn out when B6 was run?
Answer: The EC50 was 0.49 nM.

Question: For B7, which EC50 is on record?
Answer: Its EC50 is 0.34 nM.

Question: Which EC50 does the source give for B8 here?
Answer: The EC50 was 0.71 nM.

Question: With B9 as the binder, how does the EC50 read?
Answer: The EC50 was 0.36 nM.

Target: human ROR1 on stably transfected cell strain MCF7-hROR1 clone 2G2 (human, UniProt Q01973 30-406)
Assay: flow cytometry (FACS) on MCF7-hROR1 clone 2G2 cells, 5-fold dilutions from 100 nM, Alexa Fluor 647 anti-human IgG secondary antibody, four-parameter fit
Description: Stably transfected cell strain MCF7-hROR1 clone 2G2 constructed in the steps described above was expanded to a logarithmic growth phase in a T-75 cell culture flask, and the medium supernatant was discarded after centrifugation. The cell pellet was washed twice with PBS. […] After the mixture was washed twice with PBS, a secondary antibody was added: Alexa Fluor® 647 AffiniPure Goat Anti-Human IgG (H+L) (purchased from Jackson Immuno, Cat. No: 109-605-088), and the mixture was incubated at 4° C. for 1 h. After the mixture was washed twice with PBS, the cells were resuspended, and detected and analyzed by FACS (FACS Canto™, purchased from BD Biosciences). Data were analyzed by four-parameter curve fitting using Graphpad Prism software to give EC₅₀ values.

Question: For B10, which EC50 is on record?
Answer: The EC50 was 1.25 nM.

Question: How did the EC50 turn out when B11 was run?
Answer: The EC50 was 0.91 nM.
